Data on 1 molecule can be found in publication PMC5584140 (The Journal of Cell Biology, 2017).

Usually Kd stands for a measure of binding affinity in units of concentration. A higher Kd goes with a looser complex.

This experiment has as its target T1, µ1 MHD carrying a C-terminal Avitag, WT (UniProt Q9BXS5 158-423).
T1 sequence (looked up): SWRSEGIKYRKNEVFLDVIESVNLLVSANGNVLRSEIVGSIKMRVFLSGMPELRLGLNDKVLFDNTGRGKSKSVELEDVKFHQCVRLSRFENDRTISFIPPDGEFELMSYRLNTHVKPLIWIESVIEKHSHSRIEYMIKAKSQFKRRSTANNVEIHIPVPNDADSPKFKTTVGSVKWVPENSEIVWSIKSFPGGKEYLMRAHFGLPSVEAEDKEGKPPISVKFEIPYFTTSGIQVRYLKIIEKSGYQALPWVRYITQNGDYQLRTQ
In words: SPR. (SPR reads the build-up and loss of mass on a sensor chip optically.)

Molecule CKVTRRPKASDYQRL [TGN38 peptide carrying a canonical YXXΦ signal] came in with a Kd of about 20 µM.
